Measured values reported in publication PMC3250484, “Molecular Networks in FGF Signaling: Flotillin-1 and Cbl-Associated Protein Compete for the Binding to Fibroblast Growth Factor Receptor Substrate 2” (PLoS ONE, 2012).

T1: Flot-1-CT-GST (Rattus norvegicus (Rat), UniProt Q9Z1E1)
T1 chain: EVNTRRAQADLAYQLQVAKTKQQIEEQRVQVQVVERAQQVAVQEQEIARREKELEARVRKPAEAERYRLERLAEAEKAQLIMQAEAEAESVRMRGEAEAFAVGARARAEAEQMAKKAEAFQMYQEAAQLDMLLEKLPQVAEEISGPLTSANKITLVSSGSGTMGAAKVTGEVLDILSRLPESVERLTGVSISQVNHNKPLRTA

T2: FL Flot-1-GST (Rattus norvegicus (Rat), UniProt Q9Z1E1-1)
T2 chain: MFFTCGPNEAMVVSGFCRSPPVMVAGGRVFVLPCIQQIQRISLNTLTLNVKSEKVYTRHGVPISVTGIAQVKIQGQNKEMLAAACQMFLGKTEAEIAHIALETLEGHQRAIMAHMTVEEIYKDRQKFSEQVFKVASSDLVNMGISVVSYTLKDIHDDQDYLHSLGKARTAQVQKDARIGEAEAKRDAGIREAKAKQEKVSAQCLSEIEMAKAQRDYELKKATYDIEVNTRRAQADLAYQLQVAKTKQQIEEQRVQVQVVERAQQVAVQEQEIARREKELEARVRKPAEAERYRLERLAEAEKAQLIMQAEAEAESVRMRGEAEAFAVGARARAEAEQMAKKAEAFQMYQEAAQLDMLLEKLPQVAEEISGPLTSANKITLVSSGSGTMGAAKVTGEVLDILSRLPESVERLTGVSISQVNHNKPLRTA

T3: FRS2-His (UniProt Q8WU20 1-508)
T3 construct: called one of the 'FL proteins' in the results; The vector pSCherry2 (Eurogentec) may add a Cherry carrier besides the His tag (surmise); also called His-tagged FRS2; purified FRS2-His; source: E. coli SE1, purified (Ni-NTA, dialysis)
T3 sequence (looked up): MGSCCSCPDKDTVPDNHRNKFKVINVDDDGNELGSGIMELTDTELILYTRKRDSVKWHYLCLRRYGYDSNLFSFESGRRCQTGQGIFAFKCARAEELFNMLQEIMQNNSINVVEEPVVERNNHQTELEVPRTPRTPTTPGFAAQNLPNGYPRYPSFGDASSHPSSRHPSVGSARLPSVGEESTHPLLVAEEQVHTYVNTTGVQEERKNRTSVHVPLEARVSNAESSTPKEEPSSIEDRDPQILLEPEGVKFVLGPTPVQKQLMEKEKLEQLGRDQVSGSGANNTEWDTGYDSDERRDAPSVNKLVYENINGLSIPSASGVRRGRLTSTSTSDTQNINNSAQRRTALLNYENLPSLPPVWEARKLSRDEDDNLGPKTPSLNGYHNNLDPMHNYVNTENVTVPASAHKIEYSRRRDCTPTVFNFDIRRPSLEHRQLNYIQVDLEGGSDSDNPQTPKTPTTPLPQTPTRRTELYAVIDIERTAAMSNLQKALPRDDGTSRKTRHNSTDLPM


Experiments:
Flot-1-CT-GST = target: T1, Flot-1-CT-GST; test: GST pulldown
FL Flot-1-GST = target: T2, FL Flot-1-GST; test: GST pulldown
FRS2-His = target: T3, FRS2-His; test: pull-down; GST fusion immobilised on sepharose beads, purified FRS2-His in solution; 5 µg of the purified proteins, on ice 3 h; wash 50 mM Tris-HCl pH 7.5, 150 mM NaCl, 1 mM EDTA, 1 mM DTT, 0.01% Triton X-100; anti-His blot; settings: both partners purified

binding result (Flot-1-CT-GST)	binding result (FL Flot-1-GST)	binding result (FRS2-His)	Binder
binds	binds		FRS2-His (protein) MGSCCSCPDKDTVPDNHRNKFKVINVDDDGNELGSGIMELTDTELILYTRKRDSVKWHYLCLRRYGYDSNLFSFESGRRCQTGQGIFAFKCARAEELFNMLQEIMQNNSINVVEEPVVERNNHQTELEVPRTPRTPTTPGFAAQNLPNGYPRYPSFGDASSHPSSRHPSVGSARLPSVGEESTHPLLVAEEQVHTYVNTTGVQEERKNRTSVHVPLEARVSNAESSTPKEEPSSIEDRDPQILLEPEGVKFVLGPTPVQKQLMEKEKLEQLGRDQVSGSGANNTEWDTGYDSDERRDAPSVNKLVYENINGLSIPSASGVRRGRLTSTSTSDTQNINNSAQRRTALLNYENLPSLPPVWEARKLSRDEDDNLGPKTPSLNGYHNNLDPMHNYVNTENVTVPASAHKIEYSRRRDCTPTVFNFDIRRPSLEHRQLNYIQVDLEGGSDSDNPQTPKTPTTPLPQTPTRRTELYAVIDIERTAAMSNLQKALPRDDGTSRKTRHNSTDLPM
		binds	FL Flot-1-GST (natural protein, rat, UniProt Q9Z1E1-1 1-428, looked up, Rat flotillin-1 in pET41a, full length; pET41a adds further N-terminal tags besides GST (surmise from the vector); also called flot-1-FL-GST) MFFTCGPNEAMVVSGFCRSPPVMVAGGRVFVLPCIQQIQRISLNTLTLNVKSEKVYTRHGVPISVTGIAQVKIQGQNKEMLAAACQMFLGKTEAEIAHIALETLEGHQRAIMAHMTVEEIYKDRQKFSEQVFKVASSDLVNMGISVVSYTLKDIHDDQDYLHSLGKARTAQVQKDARIGEAEAKRDAGIREAKAKQEKVSAQCLSEIEMAKAQRDYELKKATYDIEVNTRRAQADLAYQLQVAKTKQQIEEQRVQVQVVERAQQVAVQEQEIARREKELEARVRKPAEAERYRLERLAEAEKAQLIMQAEAEAESVRMRGEAEAFAVGARARAEAEQMAKKAEAFQMYQEAAQLDMLLEKLPQVAEEISGPLTSANKITLVSSGSGTMGAAKVTGEVLDILSRLPESVERLTGVSISQVNHNKPLRTA
